This is an account of results in PMC10229617 (Nature Communications, 2023).

The data set deals with the molecule itself. As to the kind of experiment: native MS; MS spectrum of the archaeal α/β assembly mixture (assembled without the 60 °C step), 150 mM ammonium acetate pH 7.5.

B1: T. acidophilum 20S proteasome α-ring (α7), tag cleaved (natural protein, Thermoplasma acidophilum)
chain: MQQGQMAYDRAITVFSPDGRLFQVEYAREAVKKGSTALGMKFANGVLLISDKKVRSRLIEQNSIEKIQLIDDYVAAVTSGLVADARVLVDFARISAQQEKVTYGSLVNIENLVKRVADQMQQYTQYGGVRPYGVSLIFAGIDQIGPRLFDCDPAGTINEYKATAIGSGKDAVVSFLEREYKENLPEKEAVTLGIKALKSSLEEGEELKAPEIASITVGNKYRIYDQEEVKKFL
notes: proteasome subunit alpha, Thermoplasma acidophilum; source: E. coli BL21(DE3), purified (HisTrap FF, TEV cleavage), in the assembly mixture
Usually stoichiometry N stands for the number of molecules, sites or subunits per partner or assembly. As to B1, the “stoichiometry N” value worked out at 7.
